Data from the supplement of paper PMC9112550, “Optimization of the antimicrobial peptide Bac7 by deep mutational scanning” (BMC Biology, 2022).

Test system: Escherichia coli TOP10
Experiment: shrunken log2 fold change of peptide-encoding DNA abundance (4.5 h post-induction vs induction); higher = less antimicrobial activity (less host growth inhibition)
Conditions: time post-induction: 4.5 h; library: site-saturation at positions 5, 18, 19, 20
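Further: peptides expressed intracellularly from a pBAD plasmid library in pooled LB shake-flask culture, induced with 0.3% L-arabinose, DNA abundance read by NGS, three biological replicates, DESeq2 with apeglm shrinkage.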

Sequence	shrunken log2 fold change
RRIRQRPPRLPRPRPRPIYAPRP	-0.222
RRIRQRPPRLPRPRPRPIYGPRP	-0.00674
RRIRQRPPRLPRPRPRPKCFPRP	-0.25
RRIRQRPPRLPRPRPRPKDNPRP	-0.23
RRIRQRPPRLPRPRPRPKERPRP	-0.00138
RRIRQRPPRLPRPRPRPKFFPRP	-0.0285
RRIRQRPPRLPRPRPRPKFGPRP	0.102
RRIRQRPPRLPRPRPRPKGHPRP	-0.139
RRIRQRPPRLPRPRPRPKGWPRP	0.502
RRIRQRPPRLPRPRPRPKHFPRP	-0.0231
RRIRQRPPRLPRPRPRPKIDPRP	-0.146
RRIRQRPPRLPRPRPRPKKGPRP	0.124
RRIRQRPPRLPRPRPRPKKIPRP	-0.0759
RRIRQRPPRLPRPRPRPKMMPRP	-0.082
RRIRQRPPRLPRPRPRPKMNPRP	-0.328
RRIRQRPPRLPRPRPRPKNGPRP	-0.159
RRIRQRPPRLPRPRPRPKNSPRP	-0.536
RRIRQRPPRLPRPRPRPKPTPRP	-0.0515
RRIRQRPPRLPRPRPRPKQVPRP	0.0304
RRIRQRPPRLPRPRPRPKQYPRP	-0.359
RRIRQRPPRLPRPRPRPKRWPRP	0.0413
RRIRQRPPRLPRPRPRPKSTPRP	-0.228
RRIRQRPPRLPRPRPRPKTEPRP	0.104
RRIRQRPPRLPRPRPRPKTVPRP	-0.093
RRIRQRPPRLPRPRPRPKVYPRP	-0.177

Sequence	shrunken log2 fold change
RRIRQRPPRLPRPRPRPKYCPRP	0.0636
RRIRQRPPRLPRPRPRPKYVPRP	0.178
RRIRQRPPRLPRPRPRPLATPRP	0.0953
RRIRQRPPRLPRPRPRPLCRPRP	-0.272
RRIRQRPPRLPRPRPRPLDLPRP	-0.276
RRIRQRPPRLPRPRPRPLGNPRP	-0.263
RRIRQRPPRLPRPRPRPLGRPRP	-0.00354
RRIRQRPPRLPRPRPRPLHWPRP	0.0127
RRIRQRPPRLPRPRPRPLIAPRP	-0.124
RRIRQRPPRLPRPRPRPLICPRP	-0.0973
RRIRQRPPRLPRPRPRPLILPRP	-0.424
RRIRQRPPRLPRPRPRPLIQPRP	-0.228
RRIRQRPPRLPRPRPRPLLGPRP	0.158
RRIRQRPPRLPRPRPRPLLQPRP	0.212
RRIRQRPPRLPRPRPRPLLYPRP	-0.382
RRIRQRPPRLPRPRPRPLPGPRP	0.0661
RRIRQRPPRLPRPRPRPLPHPRP	0.137
RRIRQRPPRLPRPRPRPLPNPRP	0.0261
RRIRQRPPRLPRPRPRPLRHPRP	0.323
RRIRQRPPRLPRPRPRPLRMPRP	0.483
RRIRQRPPRLPRPRPRPLRNPRP	0.121
RRIRQRPPRLPRPRPRPLTCPRP	-0.539
RRIRQRPPRLPRPRPRPLVKPRP	-0.166
RRIRQRPPRLPRPRPRPLWQPRP	0.296
RRIRQRPPRLPRPRPRPLWVPRP	0.221

Sequence	shrunken log2 fold change
RRIRQRPPRLPRPRPRPMANPRP	-0.18
RRIRQRPPRLPRPRPRPMAPPRP	0.0505
RRIRQRPPRLPRPRPRPMCRPRP	-0.0374
RRIRQRPPRLPRPRPRPMCTPRP	-0.173
RRIRQRPPRLPRPRPRPMENPRP	-0.0199
RRIRQRPPRLPRPRPRPMFTPRP	-0.31
RRIRQRPPRLPRPRPRPMHMPRP	-0.369
RRIRQRPPRLPRPRPRPMNEPRP	-0.0541
RRIRQRPPRLPRPRPRPMPWPRP	0.117
RRIRQRPPRLPRPRPRPMSYPRP	-0.01
RRIRQRPPRLPRPRPRPMTLPRP	0.106
RRIRQRPPRLPRPRPRPMTYPRP	-0.0223
RRIRQRPPRLPRPRPRPMVPPRP	-0.0191
RRIRQRPPRLPRPRPRPNACPRP	-0.000684
RRIRQRPPRLPRPRPRPNAHPRP	-0.18
RRIRQRPPRLPRPRPRPNDGPRP	-0.000777
RRIRQRPPRLPRPRPRPNFMPRP	0.0789
RRIRQRPPRLPRPRPRPNFTPRP	-0.186
RRIRQRPPRLPRPRPRPNFYPRP	-0.0848
RRIRQRPPRLPRPRPRPNGTPRP	1.1
RRIRQRPPRLPRPRPRPNIPPRP	-0.262
RRIRQRPPRLPRPRPRPNIRPRP	0.0516
RRIRQRPPRLPRPRPRPNKFPRP	-0.896
RRIRQRPPRLPRPRPRPNMAPRP	-0.173
RRIRQRPPRLPRPRPRPNMPPRP	-0.634

Sequence	shrunken log2 fold change
RRIRQRPPRLPRPRPRPNMRPRP	0.121
RRIRQRPPRLPRPRPRPNPNPRP	-0.0129
RRIRQRPPRLPRPRPRPNQAPRP	-0.0235
RRIRQRPPRLPRPRPRPNQMPRP	-0.0557
RRIRQRPPRLPRPRPRPNREPRP	-0.0709
RRIRQRPPRLPRPRPRPNRGPRP	-0.0689
RRIRQRPPRLPRPRPRPNRMPRP	0.00219
RRIRQRPPRLPRPRPRPNSIPRP	-0.21
RRIRQRPPRLPRPRPRPNVPPRP	-0.0402
RRIRQRPPRLPRPRPRPNYYPRP	-0.611
RRIRQRPPRLPRPRPRPPAMPRP	-0.0312
RRIRQRPPRLPRPRPRPPCIPRP	-0.053
RRIRQRPPRLPRPRPRPPCKPRP	0.0303
RRIRQRPPRLPRPRPRPPCRPRP	-0.0419
RRIRQRPPRLPRPRPRPPCWPRP	0.102
RRIRQRPPRLPRPRPRPPDCPRP	-0.0194
RRIRQRPPRLPRPRPRPPDTPRP	0.103
RRIRQRPPRLPRPRPRPPEYPRP	-0.245
RRIRQRPPRLPRPRPRPPGTPRP	0.617
RRIRQRPPRLPRPRPRPPHEPRP	0.559
RRIRQRPPRLPRPRPRPPHLPRP	0.205
RRIRQRPPRLPRPRPRPPKMPRP	-0.0821
RRIRQRPPRLPRPRPRPPLEPRP	0.949
RRIRQRPPRLPRPRPRPPMWPRP	0.336
RRIRQRPPRLPRPRPRPPNKPRP	0.116

Sequence	shrunken log2 fold change
RRIRQRPPRLPRPRPRPPNPPRP	0.109
RRIRQRPPRLPRPRPRPPNQPRP	0.448
RRIRQRPPRLPRPRPRPPRYPRP	0.606
RRIRQRPPRLPRPRPRPPSRPRP	0.138
RRIRQRPPRLPRPRPRPPSTPRP	0.179
RRIRQRPPRLPRPRPRPPVFPRP	0.247
RRIRQRPPRLPRPRPRPPWYPRP	-0.226
RRIRQRPPRLPRPRPRPQAIPRP	0.0712
RRIRQRPPRLPRPRPRPQAMPRP	0.015
RRIRQRPPRLPRPRPRPQCEPRP	-0.234
RRIRQRPPRLPRPRPRPQCPPRP	-0.229
RRIRQRPPRLPRPRPRPQDYPRP	-0.685
RRIRQRPPRLPRPRPRPQFHPRP	-0.591
RRIRQRPPRLPRPRPRPQFTPRP	-0.177
RRIRQRPPRLPRPRPRPQGIPRP	-0.602
RRIRQRPPRLPRPRPRPQGSPRP	0.0165
RRIRQRPPRLPRPRPRPQHIPRP	-0.357
RRIRQRPPRLPRPRPRPQHWPRP	0.0488
RRIRQRPPRLPRPRPRPQIIPRP	-0.0763
RRIRQRPPRLPRPRPRPQKTPRP	-0.064
RRIRQRPPRLPRPRPRPQLDPRP	0.188
RRIRQRPPRLPRPRPRPQLKPRP	-0.0311
RRIRQRPPRLPRPRPRPQMTPRP	-0.106
RRIRQRPPRLPRPRPRPQNLPRP	-0.0271
RRIRQRPPRLPRPRPRPQNPPRP	-0.0336

Sequence	shrunken log2 fold change
RRIRQRPPRLPRPRPRPQPTPRP	0.163
RRIRQRPPRLPRPRPRPQQMPRP	0.156
RRIRQRPPRLPRPRPRPQTDPRP	0.00346
RRIRQRPPRLPRPRPRPQTYPRP	-0.958
RRIRQRPPRLPRPRPRPQYRPRP	0.0114
RRIRQRPPRLPRPRPRPQYVPRP	0.0318
RRIRQRPPRLPRPRPRPRAFPRP	0.317
RRIRQRPPRLPRPRPRPRCAPRP	0.385
RRIRQRPPRLPRPRPRPRCNPRP	-0.515
RRIRQRPPRLPRPRPRPRESPRP	0.0584
RRIRQRPPRLPRPRPRPRETPRP	0.248
RRIRQRPPRLPRPRPRPRGVPRP	-0.0152
RRIRQRPPRLPRPRPRPRHGPRP	-0.203
RRIRQRPPRLPRPRPRPRHSPRP	-0.185
RRIRQRPPRLPRPRPRPRKHPRP	0.165
RRIRQRPPRLPRPRPRPRLDPRP	0.205
RRIRQRPPRLPRPRPRPRLSPRP	0.0751
RRIRQRPPRLPRPRPRPRMAPRP	0.0146
RRIRQRPPRLPRPRPRPRMCPRP	0.0318
RRIRQRPPRLPRPRPRPRNAPRP	0.483
RRIRQRPPRLPRPRPRPRQKPRP	0.257
RRIRQRPPRLPRPRPRPRQRPRP	0.245
RRIRQRPPRLPRPRPRPRRSPRP	-0.0497
RRIRQRPPRLPRPRPRPRTFPRP	-0.471
RRIRQRPPRLPRPRPRPRTNPRP	0.158
